Test results as given in the supplement of paper PMC10598134.
± gives the standard deviation.

Assay: collision cross section of modified peptide (TIMS, N2, iRT-aligned); higher = larger / more extended gas-phase ion
Method in brief: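 Collision cross section was derived from the Mason-Schamp equation. Each value averages 1–3 technical replicates of the most abundant feature per charge state, measured on a timsTOF Pro/HT in dda-PASEF mode (nitrogen, ~2.4 mbar) after a 120-min nanoflow C18 gradient at 60 °C. Synthetic peptide pools (~100 fmol/µL in 2% acetonitrile/0.1% formic acid, iRT standard spiked 1:40) were identified with MaxQuant, and 1/K0 was calibrated with three reference ions and aligned run-wise to the median iRT peptide deviation.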

[1] = charge state: 2, modification: Trimethyl (K)
[2] = charge state: 3, modification: Trimethyl (K)
[3] = charge state: 2, modification: hydroxyisobutyryl
[4] = charge state: 3, modification: hydroxyisobutyryl
[5] = charge state: 3, modification: HexNAc (ST)
[6] = charge state: 2, modification: Acetyl (K)
[7] = charge state: 2, modification: Butyryl
[8] = charge state: 2, modification: Crotonyl
[9] = charge state: 2, modification: Dimethyl (K)
[10] = charge state: 3, modification: Dimethyl (K)
[11] = charge state: 2, modification: Formyl
[12] = charge state: 2, modification: Glutarylation
[13] = charge state: 2, modification: GlyGly (K)
[14] = charge state: 3, modification: GlyGly (K)
[15] = charge state: 2, modification: Malonyl
[16] = charge state: 2, modification: Methyl (K)
[17] = charge state: 3, modification: Methyl (K)
[18] = charge state: 2, modification: Succinyl
[19] = charge state: 2, modification: Nitro (Y)
[20] = charge state: 2, modification: Phospho (Y)
[21] = charge state: 2, modification: HexNAc (ST)
[22] = charge state: 3, modification: Glutarylation
[23] = charge state: 3, modification: Succinyl
[24] = charge state: 2, modification: Citrullination (R)
[25] = charge state: 3, modification: Citrullination (R)

Sequence: TTGFYSGFSEVAEKR [_TTGFYSGFSEVAEK(Trimethyl (K))R_]
- collision cross section [1]: 459.26 Å²
- collision cross section [2]: 508.85 ± 1.6 Å²

Sequence: TTGFYSGFSEVAEKR [_TTGFYSGFSEVAEK(hydroxyisobutyryl)R_]
- collision cross section [3]: 444.06 ± 0.8 Å²
- collision cross section [4]: 515.51 ± 0.49 Å²

Sequence: TTLTSDESVKDHTTAGR [_TTLTS(HexNAc (ST))DESVKDHTTAGR_]
- collision cross section [5]: 545.39 ± 0.18 Å²

Sequence: TTSYPTPRPYPKPAPSSGK [_TTSYPTPRPYPKPAPS(HexNAc (ST))SGK_]
- collision cross section [5]: 526.67 Å²

Sequence: TVQGPPGEPGR [_TVQGPPGEP(Hydroxyproline)GR_]
- collision cross section (charge state: 2, modification: Hydroxyproline): 345.67 ± 0.89 Å²

Sequence: TVSKVDDFLANEAK [_TVSK(Acetyl (K))VDDFLANEAK_]
- collision cross section [6]: 417.71 ± 1.3 Å²

Sequence: TVSKVDDFLANEAK [_TVSK(Biotin)VDDFLANEAK_]
- collision cross section (charge state: 2, modification: Biotin): 445.28 ± 0.73 Å²

Sequence: TVSKVDDFLANEAK [_TVSK(Butyryl)VDDFLANEAK_]
- collision cross section [7]: 424.02 ± 0.86 Å²

Sequence: TVSKVDDFLANEAK [_TVSK(Crotonyl)VDDFLANEAK_]
- collision cross section [8]: 421.27 ± 0.55 Å²

Sequence: TVSKVDDFLANEAK [_TVSK(Dimethyl (K))VDDFLANEAK_]
- collision cross section [9]: 415.63 Å²
- collision cross section [10]: 482.42 ± 2.9 Å²

Sequence: TVSKVDDFLANEAK [_TVSK(Formyl)VDDFLANEAK_]
- collision cross section [11]: 415.84 ± 0.18 Å²

Sequence: TVSKVDDFLANEAK [_TVSK(Gluratylation)VDDFLANEAK_]
- collision cross section [12]: 427.28 ± 0.47 Å²

Sequence: TVSKVDDFLANEAK [_TVSK(GlyGly (K))VDDFLANEAK_]
- collision cross section [13]: 429.63 ± 1.4 Å²
- collision cross section [14]: 494.01 ± 1.9 Å²

Sequence: TVSKVDDFLANEAK [_TVSK(Malonyl)VDDFLANEAK_]
- collision cross section [15]: 420.45 ± 0.57 Å²

Sequence: TVSKVDDFLANEAK [_TVSK(Methyl (K))VDDFLANEAK_]
- collision cross section [16]: 413.26 ± 1.6 Å²
- collision cross section [17]: 471.08 ± 3.6 Å²

Sequence: TVSKVDDFLANEAK [_TVSK(Succinyl)VDDFLANEAK_]
- collision cross section [18]: 425.01 ± 0.52 Å²

Sequence: TVSKVDDFLANEAK [_TVSK(Trimethyl (K))VDDFLANEAK_]
- collision cross section [1]: 424.19 ± 1.1 Å²
- collision cross section [2]: 482.88 ± 1.6 Å²

Sequence: TVSKVDDFLANEAK [_TVSK(hydroxyisobutyryl)VDDFLANEAK_]
- collision cross section [3]: 426.08 ± 0.56 Å²

Sequence: TVTNAVVTVPAYFNDSQR [_TVTNAVVTVPAY(Nitro (Y))FNDSQR_]
- collision cross section [19]: 470.26 ± 1.5 Å²
- collision cross section (charge state: 3, modification: Nitro (Y)): 559.7 ± 0.32 Å²

Sequence: TYVQDILR [_TY(Nitro (Y))VQDILR_]
- collision cross section [19]: 350.96 ± 0.47 Å²

Sequence: TYVQDILR [_TY(Phospho (Y))VQDILR_]
- collision cross section [20]: 359.66 ± 0.65 Å²

Sequence: VDATADYICK [_VDATADY(Nitro (Y))ICK_]
- collision cross section [19]: 358.43 ± 0.17 Å²

Sequence: VDATADYICK [_VDATADY(Phospho (Y))ICK_]
- collision cross section [20]: 366.93 ± 0.064 Å²

Sequence: VDGDTQTTVEK [_VDGDTQTT(HexNAc (ST))VEK_]
- collision cross section [21]: 383.53 ± 0.58 Å²

Sequence: VDIDAPDVSIEGPDAKLK [_VDIDAPDVSIEGPDAK(Acetyl (K))LK_]
- collision cross section [6]: 462.55 ± 2.9 Å²

Sequence: VDIDAPDVSIEGPDAKLK [_VDIDAPDVSIEGPDAK(Butyryl)LK_]
- collision cross section [7]: 472.57 ± 0.49 Å²

Sequence: VDIDAPDVSIEGPDAKLK [_VDIDAPDVSIEGPDAK(Crotonyl)LK_]
- collision cross section [8]: 471.19 ± 1.1 Å²

Sequence: VDIDAPDVSIEGPDAKLK [_VDIDAPDVSIEGPDAK(Dimethyl (K))LK_]
- collision cross section [9]: 457.63 ± 1.8 Å²
- collision cross section [10]: 550.49 ± 0.63 Å²

Sequence: VDIDAPDVSIEGPDAKLK [_VDIDAPDVSIEGPDAK(Formyl)LK_]
- collision cross section [11]: 461.12 Å²

Sequence: VDIDAPDVSIEGPDAKLK [_VDIDAPDVSIEGPDAK(Gluratylation)LK_]
- collision cross section [12]: 469.43 ± 1.5 Å²

Sequence: VDIDAPDVSIEGPDAKLK [_VDIDAPDVSIEGPDAK(GlyGly (K))LK_]
- collision cross section [13]: 470.72 ± 1.4 Å²
- collision cross section [14]: 499.87 ± 1.9 Å²

Sequence: VDIDAPDVSIEGPDAKLK [_VDIDAPDVSIEGPDAK(Malonyl)LK_]
- collision cross section [15]: 466.92 ± 1.2 Å²

Sequence: VDIDAPDVSIEGPDAKLK [_VDIDAPDVSIEGPDAK(Methyl (K))LK_]
- collision cross section [16]: 453.93 ± 0.34 Å²
- collision cross section [17]: 544.25 ± 0.42 Å²

Sequence: VDIDAPDVSIEGPDAKLK [_VDIDAPDVSIEGPDAK(Succinyl)LK_]
- collision cross section [18]: 469.67 ± 0.79 Å²

Sequence: VDIDAPDVSIEGPDAKLK [_VDIDAPDVSIEGPDAK(Trimethyl (K))LK_]
- collision cross section [1]: 465.65 ± 1.2 Å²
- collision cross section [2]: 534.07 ± 1.8 Å²

Sequence: VDIDAPDVSIEGPDAKLK [_VDIDAPDVSIEGPDAK(hydroxyisobutyryl)LK_]
- collision cross section [3]: 475 ± 0.81 Å²

Sequence: VDIDVPDVNIEGPDAKLK [_VDIDVPDVNIEGPDAK(Acetyl (K))LK_]
- collision cross section [6]: 477.46 ± 4.2 Å²

Sequence: VDIDVPDVNIEGPDAKLK [_VDIDVPDVNIEGPDAK(Butyryl)LK_]
- collision cross section [7]: 488.42 ± 0.47 Å²

Sequence: VDIDVPDVNIEGPDAKLK [_VDIDVPDVNIEGPDAK(Crotonyl)LK_]
- collision cross section [8]: 487.32 Å²

Sequence: VDIDVPDVNIEGPDAKLK [_VDIDVPDVNIEGPDAK(Dimethyl (K))LK_]
- collision cross section [10]: 550.04 ± 1.1 Å²

Sequence: VDIDVPDVNIEGPDAKLK [_VDIDVPDVNIEGPDAK(Gluratylation)LK_]
- collision cross section [12]: 479.85 ± 0.49 Å²
- collision cross section [22]: 509.66 ± 1.3 Å²

Sequence: VDIDVPDVNIEGPDAKLK [_VDIDVPDVNIEGPDAK(GlyGly (K))LK_]
- collision cross section [13]: 469.92 ± 1.9 Å²
- collision cross section [14]: 504.15 ± 0.79 Å²

Sequence: VDIDVPDVNIEGPDAKLK [_VDIDVPDVNIEGPDAK(Malonyl)LK_]
- collision cross section [15]: 474.57 Å²

Sequence: VDIDVPDVNIEGPDAKLK [_VDIDVPDVNIEGPDAK(Methyl (K))LK_]
- collision cross section [16]: 457.57 ± 0.42 Å²
- collision cross section [17]: 489.73 ± 3.2 Å²

Sequence: VDIDVPDVNIEGPDAKLK [_VDIDVPDVNIEGPDAK(Succinyl)LK_]
- collision cross section [18]: 479.51 ± 1 Å²
- collision cross section [23]: 508.07 ± 2 Å²

Sequence: VDIDVPDVNIEGPDAKLK [_VDIDVPDVNIEGPDAK(Trimethyl (K))LK_]
- collision cross section [1]: 470.5 Å²
- collision cross section [2]: 538.87 ± 1.8 Å²

Sequence: VDIDVPDVNIEGPDAKLK [_VDIDVPDVNIEGPDAK(hydroxyisobutyryl)LK_]
- collision cross section [3]: 489.94 Å²

Sequence: VDVEVPDVSLEGPEGKLK [_VDVEVPDVSLEGPEGK(Acetyl (K))LK_]
- collision cross section [6]: 461.92 ± 2.1 Å²
- collision cross section (charge state: 3, modification: Acetyl (K)): 555.98 Å²

Sequence: VDVEVPDVSLEGPEGKLK [_VDVEVPDVSLEGPEGK(Butyryl)LK_]
- collision cross section [7]: 469.33 ± 0.49 Å²

Sequence: VDVEVPDVSLEGPEGKLK [_VDVEVPDVSLEGPEGK(Crotonyl)LK_]
- collision cross section [8]: 469.01 ± 1.1 Å²

Sequence: VDVEVPDVSLEGPEGKLK [_VDVEVPDVSLEGPEGK(Dimethyl (K))LK_]
- collision cross section [9]: 459.72 ± 1.8 Å²
- collision cross section [10]: 548.43 ± 0.78 Å²

Sequence: VDVEVPDVSLEGPEGKLK [_VDVEVPDVSLEGPEGK(Formyl)LK_]
- collision cross section [11]: 460.51 ± 1.4 Å²

Sequence: VDVEVPDVSLEGPEGKLK [_VDVEVPDVSLEGPEGK(Gluratylation)LK_]
- collision cross section [12]: 465.13 ± 4.5 Å²
- collision cross section [22]: 502.24 Å²

Sequence: VDVEVPDVSLEGPEGKLK [_VDVEVPDVSLEGPEGK(GlyGly (K))LK_]
- collision cross section [13]: 462.5 ± 0.94 Å²
- collision cross section [14]: 497.08 ± 1.1 Å²

Sequence: VDVEVPDVSLEGPEGKLK [_VDVEVPDVSLEGPEGK(Malonyl)LK_]
- collision cross section [15]: 466.73 ± 0.63 Å²
- collision cross section (charge state: 3, modification: Malonyl): 496.84 Å²

Sequence: VDVEVPDVSLEGPEGKLK [_VDVEVPDVSLEGPEGK(Methyl (K))LK_]
- collision cross section [16]: 462.48 ± 7.8 Å²
- collision cross section [17]: 551.69 ± 1.3 Å²

Sequence: VDVEVPDVSLEGPEGKLK [_VDVEVPDVSLEGPEGK(Succinyl)LK_]
- collision cross section [18]: 456.12 ± 0.34 Å²
- collision cross section [23]: 501.13 ± 1.5 Å²

Sequence: VDVEVPDVSLEGPEGKLK [_VDVEVPDVSLEGPEGK(Trimethyl (K))LK_]
- collision cross section [1]: 461.69 ± 0.55 Å²
- collision cross section [2]: 507.27 ± 0.86 Å²

Sequence: VDVEVPDVSLEGPEGKLK [_VDVEVPDVSLEGPEGK(hydroxyisobutyryl)LK_]
- collision cross section [3]: 470.57 ± 1.1 Å²
- collision cross section [4]: 549.45 ± 27 Å²

Sequence: VEELEGEITTLNHK [_VEELEGEIT(HexNAc (ST))TLNHK_]
- collision cross section [21]: 442.1 ± 10 Å²
- collision cross section [5]: 511.94 ± 0.96 Å²

Sequence: VELCSFSGYK [_VELCSFSGY(Nitro (Y))K_]
- collision cross section [19]: 364.52 ± 0.72 Å²

Sequence: VELCSFSGYK [_VELCSFSGY(Phospho (Y))K_]
- collision cross section [20]: 372.99 ± 0.08 Å²

Sequence: VEPGSLESSPGLGRGR [_VEPGSLESSPGLGR(Citrullination (R))GR_]
- collision cross section [24]: 418.2 ± 0.21 Å²
- collision cross section [25]: 495.92 ± 3.1 Å²

Sequence: VEPGSLESSPGLGRGR [_VEPGSLESSPGLGR(Methyl (R))GR_]
- collision cross section (charge state: 3, modification: Methyl (R)): 499.14 ± 2.2 Å²

Sequence: VEPIHAVVLPRGK [_VEPIHAVVLPR(Citrullination (R))GK_]
- collision cross section [24]: 406.23 ± 0.55 Å²
- collision cross section [25]: 492.34 ± 18 Å²
